Measurements taken from patent US20240327497A1.
Numbering of substitutions follows the chain as printed. Names and notes keep the numbering of the source. Values joined by “and” are separate entries in the source; they are usually repeats but may differ in a detail not shown here. Identical values can stand only once.

B1: wild-type canine IgGB Fc (CH2-CH3) with N-terminal SASA tag (Fc fusion, part only; not given: SASA tag, not shown: another chain or arm of the molecule; small tags and cut ends)
Fc: APEMLGGPSVFIFPPKPKDTLLIARTPEVTCVVVDLDPEDPEVQISWFVDGKQMQTAKTQPREEQFNGTYRVVSVLPIGHQDWLKGKQFTCKVNNKALPSPIERTISKARGQAHQPSVYVLPPSREELSKNTVSLTCLIKDFFPPDIDVEWQSNGQQEPESKYRTTPPQLDEDGSYFLYSKLSVDKSRWQRGDTFICAVMHEALHNHYTQESLSHSPGK
B2: canine IgGB Fc (CH2-CH3) L252Y with N-terminal SASA tag (Fc fusion, part only; not given: SASA tag, not shown: another chain or arm of the molecule; small tags and cut ends)
Fc: B1 Fc with L22Y
B3: canine IgGB Fc (CH2-CH3) L252M with N-terminal SASA tag (Fc fusion, part only; not given: SASA tag, not shown: another chain or arm of the molecule; small tags and cut ends)
Fc: B1 Fc with L22M
B4: canine IgGB Fc (CH2-CH3) T250Q with N-terminal SASA tag (Fc fusion, part only; not given: SASA tag, not shown: another chain or arm of the molecule; small tags and cut ends)
Fc: B1 Fc with T20Q
B5: canine IgGB Fc (CH2-CH3) T250E with N-terminal SASA tag (Fc fusion, part only; not given: SASA tag, not shown: another chain or arm of the molecule; small tags and cut ends)
Fc: B1 Fc with T20E
B6: canine IgGB Fc (CH2-CH3) E380A with N-terminal SASA tag (Fc fusion, part only; not given: SASA tag, not shown: another chain or arm of the molecule; small tags and cut ends)
Fc: B1 Fc with E150A
B7: canine IgGB Fc (CH2-CH3) N434A with N-terminal SASA tag (Fc fusion, part only; not given: SASA tag, not shown: another chain or arm of the molecule; small tags and cut ends)
Fc: B1 Fc with N206A
B8: canine IgGB Fc (CH2-CH3) A426F with N-terminal SASA tag (Fc fusion, part only; not given: SASA tag, not shown: another chain or arm of the molecule; small tags and cut ends)
Fc: B1 Fc with A198F
B9: canine IgGB Fc (CH2-CH3) A426H with N-terminal SASA tag (Fc fusion, part only; not given: SASA tag, not shown: another chain or arm of the molecule; small tags and cut ends)
Fc: B1 Fc with A198H
B10: canine IgGB Fc (CH2-CH3) A426Y with N-terminal SASA tag (Fc fusion, part only; not given: SASA tag, not shown: another chain or arm of the molecule; small tags and cut ends)
Fc: B1 Fc with A198Y
B11: canine IgGB Fc (CH2-CH3) D312P with N-terminal SASA tag (Fc fusion, part only; not given: SASA tag, not shown: another chain or arm of the molecule; small tags and cut ends)
Fc: B1 Fc with D82P
B12: anti-NGF canine IgGB antibody with wild-type IgGB Fc (antibody, part only; not given: Anti-NGF variable domains, not shown: another chain or arm of the molecule; small tags and cut ends)
Fc: B1 Fc
B13: anti-NGF canine IgGB antibody, Fc variant A426H + N434R (antibody, part only; not given: Anti-NGF variable domains, not shown: another chain or arm of the molecule; small tags and cut ends)
Fc: B1 Fc with A198H, N206R

Biological target: canine FcRn (FcRn large subunit with canine beta-2-microglobulin) (canine)
Test: SPR pH 5.5, SASA-Fc captured on BSA, FcRn 200 nM

Kd	koff	kon	Binder
1710 nM and 2660 nM	0.288 s⁻¹ and 0.326 s⁻¹	168000 M⁻¹ s⁻¹ and 123000 M⁻¹ s⁻¹	B1
98.7 nM and 114 nM	0.0397 s⁻¹ and 0.041 s⁻¹	402000 M⁻¹ s⁻¹ and 358000 M⁻¹ s⁻¹	B2
869 nM and 774 nM	0.168 s⁻¹ and 0.169 s⁻¹	193000 M⁻¹ s⁻¹ and 218000 M⁻¹ s⁻¹	B3

Biological target: canine FcRn (FcRn large subunit with canine beta-2-microglobulin) (canine)
Test: SPR pH 5.5, SASA-Fc captured on BSA, FcRn 200 nM
Remark: another data set of the same source

Kd	koff	kon	Binder
8990 nM and 3110 nM	0.347 s⁻¹ and 0.354 s⁻¹	38700 M⁻¹ s⁻¹ and 114000 M⁻¹ s⁻¹	B1
2590 nM and 2840 nM	0.258 s⁻¹ and 0.268 s⁻¹	99600 M⁻¹ s⁻¹ and 94300 M⁻¹ s⁻¹	B4
2480 nM and 1660 nM	0.284 s⁻¹ and 0.287 s⁻¹	114000 M⁻¹ s⁻¹ and 172000 M⁻¹ s⁻¹	B5

Biological target: canine FcRn (FcRn large subunit with canine beta-2-microglobulin) (canine)
Test: SPR pH 5.5, SASA-Fc captured on BSA, FcRn 400 nM

Kd	WT KD Avg/Variant KD	koff	kon	Binder
618 nM and 747 nM	0.76 and 0.92	0.369 s⁻¹ and 0.18 s⁻¹	598000 M⁻¹ s⁻¹ and 241000 M⁻¹ s⁻¹	B6
457 nM and 494 nM	1.24 and 1.14	0.237 s⁻¹ and 0.477 s⁻¹	518000 M⁻¹ s⁻¹ and 966000 M⁻¹ s⁻¹	B7

Biological target: canine FcRn (FcRn large subunit with canine beta-2-microglobulin) (canine)
Test: SPR pH 5.5, SASA-Fc captured on BSA, FcRn 200 nM
Remark: another data set of the same source

Kd	koff	kon	Binder
1320 nM and 1570 nM	0.223 s⁻¹ and 0.239 s⁻¹	168000 M⁻¹ s⁻¹ and 152000 M⁻¹ s⁻¹	B6
1560 nM and 754 nM	0.179 s⁻¹ and 0.182 s⁻¹	115000 M⁻¹ s⁻¹ and 242000 M⁻¹ s⁻¹	B1

Biological target: canine FcRn (FcRn large subunit with canine beta-2-microglobulin) (canine)
Test: SPR pH 5.5, SASA-Fc captured on BSA, FcRn 200 nM
Remark: another data set of the same source

Kd	koff	kon	Binder
182 nM and 181 nM	0.143 s⁻¹ and 0.147 s⁻¹	786000 M⁻¹ s⁻¹ and 811000 M⁻¹ s⁻¹	B8
160 nM and 153 nM	0.135 s⁻¹ and 0.14 s⁻¹	843000 M⁻¹ s⁻¹ and 915000 M⁻¹ s⁻¹	B9
146 nM and 143 nM	0.109 s⁻¹ and 0.112 s⁻¹	750000 M⁻¹ s⁻¹ and 785000 M⁻¹ s⁻¹	B10
1010 nM and 673 nM	0.195 s⁻¹ and 0.297 s⁻¹	194000 M⁻¹ s⁻¹ and 442000 M⁻¹ s⁻¹	B1
291 nM and 439 nM	0.0894 s⁻¹ and 0.11 s⁻¹	307000 M⁻¹ s⁻¹ and 251000 M⁻¹ s⁻¹	B11

Biological target: canine FcRn (FcRn large subunit with canine beta-2-microglobulin) (canine)
Test: SPR pH 5.5, SASA-Fc captured on BSA, FcRn 200 nM
Remark: another data set of the same source

Kd	koff	kon	Binder
884 nM and 862 nM	0.21 s⁻¹ and 0.218 s⁻¹	237000 M⁻¹ s⁻¹ and 253000 M⁻¹ s⁻¹	B1

Biological target: canine FcRn (FcRn large subunit with canine beta-2-microglobulin) (canine)
Test: SPR pH 6.0, IgG coupled to CM5, FcRn 200-3200 nM

Kd [nM]	koff [s⁻¹]	kon [M⁻¹ s⁻¹]	Binder
3370	0.385	114000	B12
2480	0.264	107000	B13

Biological target: canine FcRn (FcRn large subunit with canine beta-2-microglobulin) (canine)
Test: SPR pH 5.5, SASA-Fc captured on BSA, FcRn 200 nM
Remark: another data set of the same source

Kd	koff	kon	Binder
955 nM and 1310 nM	0.181 s⁻¹ and 0.209 s⁻¹	190000 M⁻¹ s⁻¹ and 159000 M⁻¹ s⁻¹	B1
573 nM and 629 nM	0.156 s⁻¹ and 0.164 s⁻¹	272000 M⁻¹ s⁻¹ and 261000 M⁻¹ s⁻¹	B7

Biological target: canine FcRn (FcRn large subunit with canine beta-2-microglobulin) (canine)
Test: SPR pH 5.5, SASA-Fc captured on BSA, FcRn 200 nM
Remark: another data set of the same source

Kd	koff	kon	Binder
2050 nM and 2990 nM	0.31 s⁻¹ and 0.315 s⁻¹	151000 M⁻¹ s⁻¹ and 105000 M⁻¹ s⁻¹	B1

Biological target: canine FcRn (FcRn large subunit with canine beta-2-microglobulin) (canine)
Test: SPR pH 5.5, SASA-Fc captured on BSA, FcRn 200 nM
Remark: another data set of the same source

Kd	koff	kon	Binder
502 nM and 784 nM	0.169 s⁻¹ and 0.207 s⁻¹	336000 M⁻¹ s⁻¹ and 264000 M⁻¹ s⁻¹	B1

Biological target: canine FcRn (FcRn large subunit with canine beta-2-microglobulin) (canine)
Test: SPR pH 5.5, SASA-Fc captured on BSA, FcRn 200 nM
Remark: another data set of the same source

Kd	koff	kon	Binder
639 nM and 692 nM	0.17 s⁻¹ and 0.171 s⁻¹	267000 M⁻¹ s⁻¹ and 247000 M⁻¹ s⁻¹	B1

Biological target: canine FcRn (FcRn large subunit with canine beta-2-microglobulin) (canine)
Test: SPR pH 6.0, SASA-Fc captured on BSA, FcRn 100-800 nM

Kd [nM]	koff [s⁻¹]	kon [M⁻¹ s⁻¹]	Binder
1820	0.417	230000	B1

Biological target: canine FcRn (FcRn large subunit with canine beta-2-microglobulin) (canine)
Test: SPR pH 5.9, IgG coupled to C1 chip, steady state fit

Kd [nM]	Binder
951	B12

Biological target: canine FcRn (FcRn large subunit with canine beta-2-microglobulin) (canine)
Test: SPR pH 6.0, SASA-Fc captured on BSA, FcRn 200 nM

Kd	koff	kon	Binder
939 nM and 999 nM	0.14 s⁻¹ and 0.144 s⁻¹	149000 M⁻¹ s⁻¹ and 144000 M⁻¹ s⁻¹	B1

Biological target: canine FcRn (FcRn large subunit with canine beta-2-microglobulin) (canine)
Test: SPR pH 5.5, SASA-Fc captured on BSA, FcRn 400 nM; average of 12 wild-type runs

Kd [nM]	Binder
566	B1

Biological target: canine FcRn (FcRn large subunit with canine beta-2-microglobulin) (canine)
Test: SPR pH 5.5, SASA-Fc captured on BSA, FcRn 100-800 nM

Kd [nM]	koff [s⁻¹]	kon [M⁻¹ s⁻¹]	Binder
522	0.132	253000	B8
343	0.106	308000	B9
389	0.102	262000	B10
3150	0.527	168000	B1
173	0.0476	275000	B2
